Measurements: IntAct's records for PubMed 21074049

B1: ERAD-associated E3 ubiquitin-protein ligase HRD1 (Saccharomyces cerevisiae), Q08109 (parent)
chain: MVPENRRKQLAIFVVVTYLLTFYCVYSATKTSVSFLQVTLKLNEGFNLMVLSIFILLNSTLLWQLLTKLLFGELRLIEHEHIFERLPFTIINTLFMSSLFHERYFFTVAFFGLLLLYLKVFHWILKDRLEALLQSINDSTTMKTLIFSRFSFNLVLLAVVDYQIITRCISSIYTNQKSDIESTSLYLIQVMEFTMLLIDLLNLFLQTCLNFWEFYRSQQSLSNENNHIVHGDPTDENTVESDQSQPVLNDDDDDDDDDRQFTGLEGKFMYEKAIDVFTRFLKTALHLSMLIPFRMPMMLLKDVVWDILALYQSGTSLWKIWRNNKQLDDTLVTVTVEQLQNSANDDNICIICMDELIHSPNQQTWKNKNKKPKRLPCGHILHLSCLKNWMERSQTCPICRLPVFDEKGNVVQTTFTSNSDITTQTTVTDSTGIATDQQGFANEVDLLPTRTTSPDIRIVPTQNIDTLAMRTRSTSTPSPTWYTFPLHKTGDNSVGSSRSAYEFLITNSDEKENGIPVKLTIENHEVNSLHGDGGEQIAKKIVIPDKFIQHI
partner: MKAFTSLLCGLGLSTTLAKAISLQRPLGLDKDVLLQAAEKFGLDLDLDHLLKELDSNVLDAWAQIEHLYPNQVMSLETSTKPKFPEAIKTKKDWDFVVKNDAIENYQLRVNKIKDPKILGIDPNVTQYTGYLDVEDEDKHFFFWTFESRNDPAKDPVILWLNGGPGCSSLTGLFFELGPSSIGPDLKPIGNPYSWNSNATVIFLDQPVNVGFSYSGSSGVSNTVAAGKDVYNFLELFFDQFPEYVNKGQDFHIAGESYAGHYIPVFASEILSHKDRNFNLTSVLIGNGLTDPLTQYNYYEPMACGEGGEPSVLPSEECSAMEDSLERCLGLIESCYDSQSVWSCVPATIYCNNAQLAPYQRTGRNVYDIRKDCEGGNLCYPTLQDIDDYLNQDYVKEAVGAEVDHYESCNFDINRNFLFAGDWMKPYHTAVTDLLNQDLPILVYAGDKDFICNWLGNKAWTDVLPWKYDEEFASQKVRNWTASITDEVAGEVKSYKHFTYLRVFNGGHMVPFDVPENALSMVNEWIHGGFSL

Variants of: B1
Details: with cbpy_yeast PRC1, P00729

| Variant | effect of a mutation on the interaction |
| --- | --- |
| C399S | decreasing interaction |
